Assay results published in patent publication WO2012074097A1 (dated 2012).
Where a chain is given by its changes, count along the chain named.

B1: anti-CD33 chimeric antibody KM4054 (antibody, V domains shown)
VH: QLQETGPGLVKPSQSLSLTCSVTGYTITSGYEWTWIRKFPGNRMEWMGYINSSGSTDYNPSLKSRVSITRDTSKNQFFLQLNSVTTEDTATYFCTRWDRWGPGVMVTVSS
VL: DVVLTQTLVAQPVRLGDQASISCRSSQSLVHSDGHTYLEWYLQKPGQSPQLLIYEISNRFSGVPDRFSGSGSGSDFTLKISRVEPEDLGLYYCFQGTHDLPTFGGGTKLELK
notes: Expressed in FUT8 knockout CHO cells, so no core fucose
B2: anti-CD33 monoclonal antibody KM4075 (antibody, V domains shown)
VH: QLQESGPGLVKPSQSLSLTCSVTGYTITSGSDWSWIRKFPGNKMEWMGYISYSGNTNYNPSLKSRISITRDTSKNQFFLHLNSVTTADTATYYCTGKGWGQGVMVTVSS
VL: DVVLTQTPVSLSVTLGDQASISCRSSQSLEYSDGYTYLEWYLQKPGHSPQLLIYGVSNRFSGVPDRFIGSGSGTDFTLRISRVEPEDLGVYYCFQATHDPYTFGAGTKLEL
notes: Hybridoma antibody from rat or mouse
B3: anti-CD33 monoclonal antibody KM4071 (antibody, V domains shown)
VH: QIQLVQSGPELKKPEETVKISCKASDYTFTDYSIHWVKQAPGKGLKWMGWINTETGETTNADDLKGRFAFSVETSASTAYLQINNLKNEDTATYFCARYRYDASYGMDYWGQGTSVTVSS
VL: STVLTQSPKSMSMSVGERVTLSCKASENVGTYVSWYQQKPEQSPELLIYGSSNRSTGVPDRFTGSGSATDFTLTISSVQAEDLADYHCGQSYSYPPTFGGGTRLEIK
notes: as for B2
B4: anti-CD33 monoclonal antibody KM4073 (antibody, V domains shown)
VH: QVKLLQSGAALVKPGASVKMSCKVSGYTFTDYWVNWVKQSHGKTLEWIGEIYPNSGATNFNEKFKDKATLTVDRSTSTAYLEFSRLTSEDSAIYYCSLGPYWGQGVMVTVSS
VL: DVVLTQTPPTLSATIGQSVSISCRSSQSLLDSDGQTYLNWFLQRPGQSPQLLIYSVSNLESGVPNRFSGSGSETDFTLKISGVEAEDLGLYYCMQATHAPLTFGSGTNLEIK
notes: as for B2
B5: anti-CD33 monoclonal antibody KM4074 (antibody, V domains shown)
VH: B1 VH
VL: B1 VL
notes: as for B2
B6: anti-CD33 monoclonal antibody KM4072 (antibody, V domains shown)
VH: QVQLQQSGAELVKPGASVKMSCKASGYTFTTYPIEWMKQNHGKSLEWIGNFHPYNDDTEYNEKFKGKATLTVEKSSSTVYLELSRLTSDDSAVYYCARGYYYAMDYWGQGTSVTVSS
VL: DAVMTQTPLSLPVSLGDQASISCRSSQSLEDSNGNTYLNWYLQKPGQSPQLLIYRVSNRFSGVLDRFSGSGSGTDFTLKISRVEAEDLGVYFCLQLTHVPWTFGGGTKLEIK
notes: as for B2
B7: modified CD33 chimeric antibody ver.1 (antibody, V domains shown)
VH: B1 VH with N51Y
VL: B1 VL
B8: modified CD33 chimeric antibody ver.2 (antibody, V domains shown)
VH: B1 VH with N51S
VL: B1 VL
B9: modified CD33 chimeric antibody ver.3 (antibody, V domains shown)
VH: B1 VH with N51Q
VL: B1 VL
B10: modified CD33 chimeric antibody ver.4 (KM4084) (antibody, V domains shown)
VH: B1 VH with S53A
VL: B1 VL
B11: modified CD33 chimeric antibody ver.5 (antibody, V domains shown)
VH: B1 VH with S53G
VL: B1 VL

Biological target: T1, Recombinant human Siglec-3 (CD33)/Fc Chimera (R&D Systems, catalog number 1137-SL) (human, UniProt P20138 18-259)
T1 construct: Bought product; also called recombinant human CD33-Fc; not shown: Fc part of the bought fusion protein; not described
Assay: binding ELISA, CD33-Fc on the plate

T1 sequence (P20138 18-259 limits assumed, change not shown): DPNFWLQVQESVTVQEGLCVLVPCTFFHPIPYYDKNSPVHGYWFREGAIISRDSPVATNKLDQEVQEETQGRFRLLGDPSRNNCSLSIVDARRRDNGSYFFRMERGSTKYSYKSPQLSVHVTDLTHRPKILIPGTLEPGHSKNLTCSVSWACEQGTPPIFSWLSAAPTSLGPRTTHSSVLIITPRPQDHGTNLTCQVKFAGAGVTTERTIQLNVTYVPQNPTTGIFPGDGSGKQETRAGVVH

Binding result, binds:
B1

Biological target: T2, human CD33 on cells (human CD33-expressing CHO/DG44 cell line; CD33-positive cell lines THP-1, NB-4) (human, UniProt P20138 18-364)
T2 construct: The same entry is used here for the endogenous CD33 of THP-1, NB-4 and other leukemia lines; also called hCD33; CD33 transfectant
Assay: flow cytometry on THP-1 cells

T2 sequence (P20138 other isoform, or with tags, fused parts or gaps limits assumed): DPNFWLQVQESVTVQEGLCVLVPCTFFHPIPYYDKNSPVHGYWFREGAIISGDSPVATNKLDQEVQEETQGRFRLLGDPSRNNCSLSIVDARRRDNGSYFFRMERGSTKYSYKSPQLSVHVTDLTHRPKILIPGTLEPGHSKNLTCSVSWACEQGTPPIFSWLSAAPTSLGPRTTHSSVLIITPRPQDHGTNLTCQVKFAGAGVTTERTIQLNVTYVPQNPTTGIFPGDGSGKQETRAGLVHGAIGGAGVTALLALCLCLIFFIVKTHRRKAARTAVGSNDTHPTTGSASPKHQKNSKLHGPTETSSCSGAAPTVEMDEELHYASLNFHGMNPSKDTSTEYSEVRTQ

Binding result, binds:
B2
B1

Biological target: T2, human CD33 on cells (human …)
Assay: FMAT on human CD33-expressing CHO/DG44 cells, hybridoma supernatant

Binding result, binds:
B3
B4
B5
B6

Biological target: T3, histidine-tagged soluble human CD33 (hCD33-His) (human, UniProt P20138 18-259)
T3 construct: Human CD33 extracellular region with six histidines at the C-terminus, made in CHO/DG44 cells
Assay: SPR (Biacore T-100), antibody captured on anti-human IgG, hCD33-His as analyte

T3 sequence (P20138 other isoform, or with tags, fused parts or gaps limits assumed): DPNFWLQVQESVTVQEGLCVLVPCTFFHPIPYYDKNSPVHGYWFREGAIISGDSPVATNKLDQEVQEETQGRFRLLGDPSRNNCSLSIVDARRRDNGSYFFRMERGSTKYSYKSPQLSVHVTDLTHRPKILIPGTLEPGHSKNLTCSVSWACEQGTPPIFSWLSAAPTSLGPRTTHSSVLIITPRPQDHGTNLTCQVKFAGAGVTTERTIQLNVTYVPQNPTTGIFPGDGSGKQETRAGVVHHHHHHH

Binding result, binds:
B1
B7
B8
B9
B10
B11

Biological target: T1, Recombinant human Siglec-3 (CD33)/Fc …
Assay: SPR (Biacore T-100), antibody captured on anti-mouse IgG, CD33-Fc as analyte

Binding result, binds:
B3
B2
B4
B5
